The results in this text go back to patent publication US20260184748A1 (University of Pennsylvania, published 2026).

Where no end group is shown, it is not given here.

Among the targets are PTGER4 (UniProt P35408 1-488); EBI2 (UniProt P32249 1-361); ADRB1 (UniProt P08588 1-477); AVPR1A (UniProt P37288 1-418).
Common to all, as to test: cell-based or functional assay
In a further assay the target is T1, HTR1A (UniProt P08908 1-422).
T1 sequence (looked up): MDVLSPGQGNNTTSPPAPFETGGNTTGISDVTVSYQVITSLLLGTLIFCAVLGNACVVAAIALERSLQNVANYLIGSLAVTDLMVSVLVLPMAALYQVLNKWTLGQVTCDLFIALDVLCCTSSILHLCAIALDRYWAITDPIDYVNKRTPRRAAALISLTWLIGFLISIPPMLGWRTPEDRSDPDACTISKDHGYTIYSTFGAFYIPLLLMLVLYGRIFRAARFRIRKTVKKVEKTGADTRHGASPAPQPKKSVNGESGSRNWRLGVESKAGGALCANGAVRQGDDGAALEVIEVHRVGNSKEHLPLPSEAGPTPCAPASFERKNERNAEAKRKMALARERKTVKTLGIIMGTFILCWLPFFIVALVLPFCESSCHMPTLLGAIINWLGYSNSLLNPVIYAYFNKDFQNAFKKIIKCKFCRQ

For a further assay, the target named is T2, NPBWR1 (UniProt P48145 1-328).
T2 sequence (looked up): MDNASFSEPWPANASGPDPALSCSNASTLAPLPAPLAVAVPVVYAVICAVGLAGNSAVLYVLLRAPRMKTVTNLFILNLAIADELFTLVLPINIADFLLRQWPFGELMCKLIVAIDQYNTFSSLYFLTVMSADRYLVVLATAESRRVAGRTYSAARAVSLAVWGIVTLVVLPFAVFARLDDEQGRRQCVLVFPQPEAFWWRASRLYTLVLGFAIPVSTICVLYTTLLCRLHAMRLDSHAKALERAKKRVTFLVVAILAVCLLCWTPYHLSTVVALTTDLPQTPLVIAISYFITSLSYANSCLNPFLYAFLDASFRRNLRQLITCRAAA

A further assay has as its target T3, PTGER3 (UniProt P43115 1-390, limits assumed).
T3 sequence (looked up): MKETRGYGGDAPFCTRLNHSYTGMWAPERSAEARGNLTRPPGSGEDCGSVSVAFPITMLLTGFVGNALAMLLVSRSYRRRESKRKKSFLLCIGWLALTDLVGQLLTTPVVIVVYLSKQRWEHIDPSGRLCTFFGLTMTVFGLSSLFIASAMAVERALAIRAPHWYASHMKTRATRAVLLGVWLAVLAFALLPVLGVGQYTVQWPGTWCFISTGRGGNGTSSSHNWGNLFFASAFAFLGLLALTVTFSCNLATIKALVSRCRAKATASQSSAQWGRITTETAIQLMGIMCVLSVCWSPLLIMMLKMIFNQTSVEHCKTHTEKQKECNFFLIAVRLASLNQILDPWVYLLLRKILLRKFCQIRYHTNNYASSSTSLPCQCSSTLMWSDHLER

Another assay deals with T4, EDNRB (UniProt P24530 27-442).
T4 sequence (looked up): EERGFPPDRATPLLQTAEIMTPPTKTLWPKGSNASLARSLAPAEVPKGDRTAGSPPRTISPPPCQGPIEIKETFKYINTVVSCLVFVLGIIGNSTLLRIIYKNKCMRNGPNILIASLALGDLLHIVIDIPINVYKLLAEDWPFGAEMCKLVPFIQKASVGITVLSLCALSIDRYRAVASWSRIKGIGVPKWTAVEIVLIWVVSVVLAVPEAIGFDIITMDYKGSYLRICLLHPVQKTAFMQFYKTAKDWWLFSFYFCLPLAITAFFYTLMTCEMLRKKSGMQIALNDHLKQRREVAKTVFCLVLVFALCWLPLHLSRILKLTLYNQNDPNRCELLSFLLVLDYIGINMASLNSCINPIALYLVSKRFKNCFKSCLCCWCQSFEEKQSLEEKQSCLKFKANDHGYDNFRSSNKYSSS

For the next assay, the target named is T5, DRD4 (UniProt P21917 1-419, limits assumed).
T5 sequence (looked up): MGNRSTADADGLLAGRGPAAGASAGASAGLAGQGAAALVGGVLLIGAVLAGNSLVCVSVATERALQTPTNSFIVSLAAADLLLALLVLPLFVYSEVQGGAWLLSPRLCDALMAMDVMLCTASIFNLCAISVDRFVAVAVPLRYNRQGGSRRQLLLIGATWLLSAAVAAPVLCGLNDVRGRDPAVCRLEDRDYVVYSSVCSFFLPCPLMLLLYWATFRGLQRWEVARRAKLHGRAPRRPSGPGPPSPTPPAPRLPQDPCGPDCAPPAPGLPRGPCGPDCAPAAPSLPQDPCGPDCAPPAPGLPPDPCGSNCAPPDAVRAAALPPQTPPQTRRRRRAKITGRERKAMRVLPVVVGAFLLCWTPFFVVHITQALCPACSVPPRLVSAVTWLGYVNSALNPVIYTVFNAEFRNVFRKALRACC

The target in a further assay is T6, FSHR (UniProt P23945 18-695).
T6 sequence (looked up): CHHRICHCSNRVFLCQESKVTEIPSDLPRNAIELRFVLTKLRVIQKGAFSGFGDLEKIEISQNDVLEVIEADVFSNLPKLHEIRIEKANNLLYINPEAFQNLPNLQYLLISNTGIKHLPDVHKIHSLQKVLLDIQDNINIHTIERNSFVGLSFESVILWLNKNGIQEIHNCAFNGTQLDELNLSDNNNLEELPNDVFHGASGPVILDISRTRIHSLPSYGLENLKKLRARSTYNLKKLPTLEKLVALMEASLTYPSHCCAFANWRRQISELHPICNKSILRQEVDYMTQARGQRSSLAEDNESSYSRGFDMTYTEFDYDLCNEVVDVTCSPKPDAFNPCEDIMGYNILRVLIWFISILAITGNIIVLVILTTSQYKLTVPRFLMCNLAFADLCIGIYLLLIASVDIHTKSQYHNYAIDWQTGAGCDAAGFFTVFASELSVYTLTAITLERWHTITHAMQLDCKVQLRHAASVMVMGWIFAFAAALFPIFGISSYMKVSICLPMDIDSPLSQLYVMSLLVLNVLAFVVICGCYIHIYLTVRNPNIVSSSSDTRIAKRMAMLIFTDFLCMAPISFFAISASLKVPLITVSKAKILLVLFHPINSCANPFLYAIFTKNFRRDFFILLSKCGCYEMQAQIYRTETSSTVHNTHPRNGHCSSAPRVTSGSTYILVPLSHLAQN

ADRB1, sequence (P08588 whole entry): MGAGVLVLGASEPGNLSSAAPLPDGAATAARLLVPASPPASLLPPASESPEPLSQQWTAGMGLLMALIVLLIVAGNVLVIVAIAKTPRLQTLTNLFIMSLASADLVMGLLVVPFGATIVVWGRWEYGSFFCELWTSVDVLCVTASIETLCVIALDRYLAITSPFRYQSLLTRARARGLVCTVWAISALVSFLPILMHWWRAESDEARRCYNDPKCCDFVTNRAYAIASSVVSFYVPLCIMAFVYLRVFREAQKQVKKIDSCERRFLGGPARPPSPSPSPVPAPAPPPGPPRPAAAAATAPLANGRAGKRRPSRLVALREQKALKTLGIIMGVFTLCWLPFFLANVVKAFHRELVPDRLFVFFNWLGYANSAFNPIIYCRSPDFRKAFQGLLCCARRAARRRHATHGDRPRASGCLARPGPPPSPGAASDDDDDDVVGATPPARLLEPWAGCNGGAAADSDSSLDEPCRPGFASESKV
AVPR1A, sequence (P37288 whole entry): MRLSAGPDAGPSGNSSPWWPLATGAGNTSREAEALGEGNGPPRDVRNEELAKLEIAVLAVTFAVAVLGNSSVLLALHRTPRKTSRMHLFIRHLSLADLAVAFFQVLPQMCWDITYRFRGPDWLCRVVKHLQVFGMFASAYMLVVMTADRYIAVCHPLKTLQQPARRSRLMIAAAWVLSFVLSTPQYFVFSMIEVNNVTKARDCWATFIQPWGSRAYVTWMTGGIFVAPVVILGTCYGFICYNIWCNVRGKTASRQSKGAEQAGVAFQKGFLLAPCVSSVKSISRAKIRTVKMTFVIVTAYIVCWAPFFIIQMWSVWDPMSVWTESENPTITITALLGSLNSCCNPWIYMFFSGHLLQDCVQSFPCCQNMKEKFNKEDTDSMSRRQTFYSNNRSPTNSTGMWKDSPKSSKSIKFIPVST
PTGER4, sequence (P35408 whole entry): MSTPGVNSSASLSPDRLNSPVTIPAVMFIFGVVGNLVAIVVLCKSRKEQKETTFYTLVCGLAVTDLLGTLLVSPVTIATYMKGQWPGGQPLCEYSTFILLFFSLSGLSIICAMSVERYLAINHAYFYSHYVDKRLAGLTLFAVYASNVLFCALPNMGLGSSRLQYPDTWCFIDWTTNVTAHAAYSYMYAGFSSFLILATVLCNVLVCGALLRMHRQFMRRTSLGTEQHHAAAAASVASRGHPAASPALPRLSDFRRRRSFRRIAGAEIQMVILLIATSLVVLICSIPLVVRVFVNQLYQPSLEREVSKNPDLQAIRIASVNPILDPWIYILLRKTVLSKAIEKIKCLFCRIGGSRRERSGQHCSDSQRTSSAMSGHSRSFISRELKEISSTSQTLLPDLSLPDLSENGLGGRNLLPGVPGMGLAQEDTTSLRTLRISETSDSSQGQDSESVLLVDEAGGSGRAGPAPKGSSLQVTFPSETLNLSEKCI
EBI2, sequence (P32249 whole entry): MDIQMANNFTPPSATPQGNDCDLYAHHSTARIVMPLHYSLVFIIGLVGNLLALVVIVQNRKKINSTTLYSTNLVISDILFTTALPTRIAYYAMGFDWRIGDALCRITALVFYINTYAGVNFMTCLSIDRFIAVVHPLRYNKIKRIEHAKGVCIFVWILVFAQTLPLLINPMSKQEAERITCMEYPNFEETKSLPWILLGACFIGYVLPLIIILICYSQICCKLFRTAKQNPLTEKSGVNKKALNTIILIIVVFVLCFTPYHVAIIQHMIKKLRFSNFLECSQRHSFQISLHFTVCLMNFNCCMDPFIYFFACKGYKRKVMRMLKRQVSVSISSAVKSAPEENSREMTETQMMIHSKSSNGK

On to QATVGDVNTDRPGLLDLK (also: synthesised on Rink amide resin, C-terminal amide not given here outright) [octadecaneuropeptide (ODN)], for which the “% Activity, arrestin, antagonist mode, 2.5 uM” value in the assay with PTGER4 is -15.1%; with HTR1A, -6.2%; with EBI2, -27.3%; with NPBWR1, -15%; with ADRB1, 12.6%; with AVPR1A it was -2.4%. In addition, the “% Activity, arrestin, antagonist mode, 2.5 uM” value in the assay with PTGER3 is -10%; with EDNRB, -9.9%; with DRD4 it was 2.5%; with FSHR it was -16.9%.
